Test results published in the supplement of paper PMC12764529.
± gives the half width of the 95% confidence interval.

Assays:
[1] = folding stability dG unfold from trypsin proteolysis; higher = more stable
Summary of the method: (§1)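 Unfolding free energy was derived, per protease or combined, by relating Bayesian-fitted K50 values from sequencing counts to a sequence-predicted unfolded-state K50 and a shared folded-state K50. The underlying digests exposed cysteine-free mini-proteins under 80 residues, in a PA-tagged cDNA display construct, to trypsin and chymotrypsin at 11 threefold-diluted concentrations and to a no-protease condition. A filter kept only designs with AlphaFold2 dimer inter-PAE above 15.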

[2] = folding stability dG unfold from chymotrypsin proteolysis; higher = more stable
Summary of the method: as §1

[3] = folding stability dG unfold (combined trypsin and chymotrypsin); higher = more stable
Summary of the method: as §1

| Sequence | folding stability dG unfold [1] [kcal/mol] | folding stability dG unfold [2] [kcal/mol] | folding stability dG unfold [3] [kcal/mol] |
| --- | --- | --- | --- |
| SAGGSAGGMVIKLPLPNDLYAEIPVYSNSDGIVTARIVLYDPSTEEKVEKPFELPFEELLDLLSSAGGSAGG [r6_858_TrMRF] | 0.328 ± 0.027 | 0.899 ± 0.054 | 0.712 ± 0.081 |
| SAGGSAGGMVKVLVNPDGGATFIFNKDGSTSTIPVPYTTLEDVKAAVEALAKEYGIEVEEIVPASAGGSAGG [r6_254_JUSTAS] | 0.395 ± 0.085 | 1.38 ± 0.12 | 0.982 ± 0.15 |
| SAGGSAGGMVKVYPIDPNTPPEAVVARLEKEFPDRPIKSVSVSTVGDVPVVTITFPDGLKVVVSSAGGSAGG [r6_492_JUSTAS] | 0.975 ± 0.029 | 1.43 ± 0.03 | 1.23 ± 0.072 |
| SAGGSAGGMVTITEVSYDPKIGKTFTLVTVKDPEGKETLVEVPLEEIEKLIEEVPEGRPVEIAPSAGGSAGG [r6_113_JUSTAS] | -0.0621 ± 0.054 | -0.983 ± 0.64 | -0.199 ± 0.19 |
| SAGGSAGGMVTSTDPATGIVYSLDPTTGVWSAQTVTLPPITIPVSEVPELLKALPPGTPILVLASAGGSAGG [r6_104_JUSTAS] | 1.01 ± 0.016 | 1.16 ± 0.064 | 1.14 ± 0.037 |
| SAGGSAGGMVVGILTITDPATGSSETLVIPMPSEEEAVERAKELAEELEAKKGKIVKVEIRPRPSAGGSAGG [r6_787_JUSTAS] | 1.39 ± 0.064 | 1.5 ± 0.088 | 1.32 ± 0.19 |
| SAGGSAGGMVYKIRDKETGKVYEVTIDEETNEITVYDVKTGKPVKTVNMTIEELKEAGYEVEPVSAGGSAGG [r6_831_TrROS_Hall] | 3.61 ± 0.16 | 3.27 ± 0.034 | 3.4 ± 0.2 |
| SAGGSAGGMYTVIEEEFTFPPSNPDVVIEVEYPDLPDSYTITQSTFPEGDTYHVRVTITVPPNLSAGGSAGG [r6_482_JUSTAS] | 0.314 ± 0.089 | 0.762 ± 0.1 | 0.605 ± 0.076 |
| SAGGSAGGMYVKIKVTMTADELKKLFPNIKKGEKVTVELVIKVEKAPPVKVEKKKEKKVEVKLKSAGGSAGG [r6_211_TrROS_Hall] | 0.661 ± 0.062 | 2.21 ± 0.041 | 1.74 ± 0.14 |
| SAGGSAGGNTIMIPLPPNMPLDEVAKELMDAFPDYPIKDVEYERYGDRPMVTVRFPDGWKITIWSAGGSAGG [r6_492_TrROS] | 0.543 ± 0.034 | 0.818 ± 0.22 | 0.838 ± 0.12 |
| SAGGSAGGNVILVETGPDGRARVLVFDPETGKVTEYEVPADDLDAIEAIAADKVDLVIVRPVGPSAGGSAGG [r6_639_TrMRF] | 1.75 ± 0.059 | 2.23 ± 0.028 | 2.07 ± 0.11 |
| SAGGSAGGNWKVEIWPNGEQQEYTIDEIKKQLKNDIPPNYMIRVKGSGKWIPVRELLKEAGIPLSAGGSAGG [r6_937_TrROS] | 0.382 ± 0.077 | 0.793 ± 0.11 | 0.691 ± 0.076 |
| SAGGSAGGPEIEVRFPDGWYVKITVERPEDGKVTVKVEVYHPDPNGKPIPPETAKNLAKEFLNKSAGGSAGG [r6_235_TrROS] | 0.945 ± 0.075 | 0.294 ± 0.12 | 0.67 ± 0.11 |
| SAGGSAGGPIKDSKGKFIVTFEFPNGLKKKFEVENIKNPEIEFNFNGKKVKTKIIEIKKGDESKSAGGSAGG [r6_575_TrMRF] | -0.117 ± 0.12 | -0.004 ± 0.21 | 0.0149 ± 0.12 |
| SAGGSAGGPIVIKVKSLEEAKELVEKLAKELTPENVKVEIKEVFEPENSYYVVIEIKTASPEEESAGGSAGG [r6_72_TrMRF] | 2.85 ± 0.14 | 2.51 ± 0.097 | 2.65 ± 0.22 |
| SAGGSAGGPIVLKFPSPEDLEKAIEIATAHGYEIELNPESGTLVINATGPMLEEFKKIPGLEISSAGGSAGG [r6_724_TrMRF] | 2.73 ± 0.12 | 2.66 ± 0.041 | 2.72 ± 0.092 |
| SAGGSAGGPKEKKWYVMVHITWRDDGKERPRHFMFKSPEQVIEALEEQLPPDNIEIDVAVFPYKSAGGSAGG [r6_114_TrROS] | 1.63 ± 0.034 | 2.95 ± 0.053 | 2.33 ± 0.086 |
| SAGGSAGGPKHVEIVITPDLRKEIEENQKEGDPPTLMEIAKEIAREFRANGMPVDIKILPPEDFSAGGSAGG [r6_815_TrROS] | 0.216 ± 0.07 | 0.29 ± 0.31 | 0.452 ± 0.23 |
